Molecular target: CL11 (ribosomal protein L11 C-terminal domain, wild type) (Bacillus stearothermophilus, UniProt P56210 59-133)
Test: SPR

Chain of CL11 (ribosomal protein L11 C-terminal domain, wild type) (P56210 59-133): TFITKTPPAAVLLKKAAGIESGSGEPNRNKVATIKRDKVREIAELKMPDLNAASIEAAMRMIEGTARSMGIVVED

B1: biotinylated 58rRNA (structured_RNA)
RNA: GCCAGGAUGUAGGCUUAGAAGCAGCCAUCAUUUAAAGAAAGCGUAAUAGCUCACUGGU
  Kd: 2.4 nM

— article doi:10.1101/2021.08.01.454623
